Experiments:
rat PTHR [1] = target: T1, rat PTHR (Rattus norvegicus, UniProt P25961); experiment: Cellular cAMP accumulation in LLC-PK1 cells expressing rat PTHR; type: cell-based; settings: EW5 cells
T1 construct: expressed in transfected cells; host or cells: LLC-PK1 porcine renal epithelial cells (EW5; also EW29, AR-C38, AR-B44)
T1 sequence (P25961 27-591): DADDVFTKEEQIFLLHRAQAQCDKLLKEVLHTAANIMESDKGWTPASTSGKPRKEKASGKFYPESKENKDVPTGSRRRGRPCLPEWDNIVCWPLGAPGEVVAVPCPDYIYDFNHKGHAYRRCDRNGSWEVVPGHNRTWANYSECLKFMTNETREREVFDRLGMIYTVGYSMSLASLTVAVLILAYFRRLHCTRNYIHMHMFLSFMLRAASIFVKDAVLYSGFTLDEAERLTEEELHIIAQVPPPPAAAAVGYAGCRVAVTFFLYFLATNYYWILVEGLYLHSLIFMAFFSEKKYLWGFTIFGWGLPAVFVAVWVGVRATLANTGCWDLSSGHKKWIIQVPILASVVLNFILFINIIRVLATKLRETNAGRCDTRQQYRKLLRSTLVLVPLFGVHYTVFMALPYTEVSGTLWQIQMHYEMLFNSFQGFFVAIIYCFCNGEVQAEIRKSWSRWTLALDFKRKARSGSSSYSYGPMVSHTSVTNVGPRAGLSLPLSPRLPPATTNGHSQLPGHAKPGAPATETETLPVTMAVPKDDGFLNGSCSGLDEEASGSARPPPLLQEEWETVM
Procedure: FIG. 10. Stimulation of cyclic AMP accumulation by hPTH(1-31) and hPTH(1-34) in LLC-PK1 cells that express rat PTHRs. Cyclic AMP accumulation was measured in response to hPTH(1-34) (●) or hPTH(1-31) (Δ) in EW5 cells that expressed 320,000 rat PTHRs per cell. Results are expressed as fold basal.
Cells were seeded into 24-well plates at a density of 2.5×10^5 cells/well and cultured for a further 2 days before study. The cells were rinsed once with 0.5 ml of ice-cold Buffer B [10 mM HEPES (pH 7.4), 130 mM NaCl, 5 mM KCl, 1.2 mM CaCl2, 1 mM MgCl2, 1.2 mM Na2HPO^4 5 mM glucose, and 0.1% heat-inactivated BSA] supplemented with 1 mM isobtylmethylxanthine (IBMX), and placed on ice. Treatments were added to each well in 0.25 ml of IBMX-supplemented Buffer B, after which the plates were incubated at 37° C. for 15 min. The buffer then was rapidly aspirated, the plates were rapidly transferred onto liquid nitrogen, and the frozen monolayers were subsequently thawed directly into 0.5 ml of 50 mM HCl. The extracted cAMP then was measured using a commercial RIA kit (Dupont-New England Nuclear, Boston, Mass.). Results were expressed as fold-basal, where basal levels ranged between 38 and 128 pmol/mg protein/15 min. The basal level of cAMP accumulation in native LLC-PK1 cells was not consistently altered in subclones that expressed wild type PTH/PTHrp receptors.

rat PTHR [2] = target: T1, rat PTHR; experiment: u-PA secretion bioassay in LLC-PK1 cells expressing rat PTHR; type: cell-based
human PTH/PTHrP receptor [3] = target: T2, human PTH/PTHrP receptor (Homo sapiens, UniProt Q03431); experiment: IP3 production (PLC activation) in LLC-PK1 cells expressing human PTHR; type: cell-based; parameters: transfected with a full-length human PTH/PTHrP receptor cDNA; expressed in transfected cells; settings: for formation of IP3 (activation of phospholipase-C): peptide 1000 nM, mean±SEM
T2 sequence (Q03431 27-593): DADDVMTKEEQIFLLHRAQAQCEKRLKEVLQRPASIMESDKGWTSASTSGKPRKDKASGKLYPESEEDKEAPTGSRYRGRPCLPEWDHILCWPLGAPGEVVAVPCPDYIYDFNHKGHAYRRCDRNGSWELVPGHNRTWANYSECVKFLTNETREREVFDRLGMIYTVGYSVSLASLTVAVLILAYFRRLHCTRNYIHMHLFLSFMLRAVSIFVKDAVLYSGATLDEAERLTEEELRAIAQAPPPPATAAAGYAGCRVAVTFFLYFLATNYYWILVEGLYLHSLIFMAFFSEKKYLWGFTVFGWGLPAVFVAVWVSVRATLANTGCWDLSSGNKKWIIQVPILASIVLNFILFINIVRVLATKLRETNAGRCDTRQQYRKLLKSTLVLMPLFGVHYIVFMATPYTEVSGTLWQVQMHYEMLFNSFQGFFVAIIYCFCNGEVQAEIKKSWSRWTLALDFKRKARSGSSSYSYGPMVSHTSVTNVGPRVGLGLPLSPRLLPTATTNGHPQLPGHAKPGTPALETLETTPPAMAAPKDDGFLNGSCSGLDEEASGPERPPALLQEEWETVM
Procedure: Cells were seeded into 24-well plates at a density of 2.5×10^5 cells/well and cultured for a further 2 days before study. The cells were labeled at 37° C. for 16 h before assay with 3 uCi/ml of [^3H]myo-inositol in assay medium (serum- and inositol-free DMEM (GIBCO-BRL, Grand Island, N.Y.) supplemented with 0.1% BSA). After washing the cells with prewarmed assay medium containing 30 mM LiCl, they were incubated with 0.25 ml of assay medium containing 30 mM LiCl and stimulators (or vehicle) at 37° C. for various intervals(1-30 min). IP3 formation was arrested by aspiration and immediate addition of 0.5 ml of ice-cold 5% TCA. The acid extracts then were extracted twice with two volumes of water-saturated ether and adjusted to pH 7.4 with concentrated NaOH and Tris base (final concentration=10 mM) prior to chromatography on AG 1×8 anion-exchange columns (Bio-Rad, Richmond, Calif.), as previously described (Guo, J., et al., Endocrinology 136:3884-3891 (1995)). After eluting other fractions (free [^3H]myo-inositol, glycerophosphate inositol, IP1, and IP2), IP3 fractions were collected and their content of radioactivity was determined by liquid scintillation spectrometry (Beckman, model LS 6000IC).
HKRK B7 cells and HKRK B28 cells, previously loaded with [^3H]myo-inositol, were incubated with each peptide (1000 nM) for 30 min or 4 min, respectively. The formation of IP3 is expressed as a percentage of the amount measured in vehicle-treated controls. Values shown are means±SEM of triplicate determinations.

human PTH/PTHrP receptor [4] = target: T2, human PTH/PTHrP receptor; experiment: Urokinase-type plasminogen activator (u-PA) secretion bioassay in LLC-PK1 cells expressing human PTHR; settings: for secreted u-PA: peptide 1000 nM, 16 hr, mean±SEM
Procedure: Cells were seeded into 96-well plates at a density of 6×10^4 cells/well and used the following day. The cells were washed once with 0.2 ml and then refed with 0.1 ml of prewarmed DMEM containing 0.05% BSA. After adding each stimulator, plates were returned to the incubator at 37° C. for 16 h. Conditioned medium (5 ul) then was transferred from each well to a clean microplate. […] Activity was expressed in Ploug units/well, using purified human urokinase (Calbiochem) as a standard.
Cells were incubated with the indicated peptides (1000 nM) for 16 hr before measurement of secreted u-PA present in the medium, which was expressed as a percentage of the activity measured in vehicle-treated controls. Values shown are means±SEM of triplicate determinations.

- activation of AC (in words) (rat PTHR [1]): activated AC equivalently
- u-PA Activity (rat PTHR [2]; EW5 cells, 320,000 rat PTHRs per cell, peptide 1000 nM, mean±SEM): 41.2 ± 1.2 units/well
- u-PA production at 16 hr (in words) (rat PTHR [2]; EW5 cells, 100 nM of either peptide): identical
- formation of IP3 (activation of phospholipase-C) (human PTH/PTHrP receptor [3]; HKRK B7 cells, 30 min stimulation): 275 ± 21 percentage of vehicle-treated
- formation of IP3 (activation of phospholipase-C) (human PTH/PTHrP receptor [3]; HKRK B28 cells, 4 min stimulation): 170 ± 14 percentage of vehicle-treated
- u-PA bioassay activity (in words) (human PTH/PTHrP receptor [4]; HKRK B7 and HKRK B28 cells): fully active
- maximal activation of u-PA secretion compared with hPTH(1-34) (human PTH/PTHrP receptor [4]; HKRK B7 cells and AB45 cells): identical to that of hPTH(1-34)
Substance: hPTH(1-31)
- activation of PLC (in words) (human PTH/PTHrP receptor [3]; 1000 nM, HKRK B28 at 4 min and HKRK B7 at 30 min): stimulated PLC equivalently to hPTH(1-34)
- secreted u-PA (human PTH/PTHrP receptor [4]; HKRK B7 cells): 101 ± 9 percentage of the activity measured in vehicle-treated controls
- secreted u-PA (human PTH/PTHrP receptor [4]; HKRK B28 cells): 101 ± 6 percentage of the activity measured in vehicle-treated controls
